In PMC7760575, “TORC2-Dependent Ypk1-Mediated Phosphorylation of Lam2/Ltc4 Disrupts Its Association with the β-Propeller Protein Laf1 at Endoplasmic Reticulum-Plasma Membrane Contact Sites in the Yeast Saccharomyces cerevisiae” (Biomolecules, 2020):
Numbering of substitutions follows the chain as printed. Names may count otherwise.

B1: Lam2(482–1259)-(His)6 (domain or fragment, S. cerevisiae, UniProt Q06681 482-1259, looked up)
chain: LGPKELNTSYRNSTYIDMARFENSQSNLSSHRARSKTLPANKALENAVGDEGNSKRNSRYSSYSNDMAFDDADERKFRSMSKKFLNRRSFSPSNLGNKVIPGINLRNSFNKNRNSSSDFFSTNQGQQMPRTSTAGSGNIHAIMGLDSGNDDFKLEGIEYASEKKNSEFHTLFKDCDINPNEKLIVDHSCALSRDILLQGRMYISDAHIGFFSNILGWVSTVFIPFKEIVQIEKKTTAGIFPNGIVIDTLHTKYIFASFMSRDATFDLITDVWNQIILGKKYRNGFGNNDDGTISDSSSAFFDDSDDNDDDGDLDDDDPDINSTDMTSSDDIDADVFNESNDLGKNQKSTNYLLGPNKHSPTTADFKPSNNDHLVIEANINAPLGKVVNLLYGEDVSYYERILKAQKNFEISPIPNNFLTKKIRDYAYTKPLSGSIGPSKTKCLITDTLEHYDLEDYVKVLSITKNPDVPSGNIFSVKTVFLFSWDKNNSTKLTVYNSVDWTGKSWIKSMIEKGTFDGVADTTKIMISEIKKILSDEDSNINSKHQASNNESEEEIINLPTIGPPVHDPTEPDFQKGKDDTVIDEKINIPVPLGTVFSLLYGDDTSYIKKIIENQNNFNVCDIPKFVNNAREITYTKKLNNSFGPKQTKCIVTETIEHMDLNSFFMVKQIVRSPDVPYGSSFSVHTRFFYSWGDHNTTNMKVVTNVVWTGKSMLKGTIEKGSIDGQRSSTKQLVDDLKKIISNASSTKKKSRRRGKTVNKRKSSPSTIKNEKNEENFED
notes: also called Lam2/Ltc4/Ysp2 fragment; pFR391; source: E. coli BL21(DE3), purified (glutathione beads, cut off with TEV protease); not shown: GST, N-terminal, cleaved; His6, C-terminal, kept
B2: Lam2(482-1259; T518A L519A T1237A V1238A)-(His)6 (domain or fragment, S. cerevisiae, UniProt Q06681 482-1259, looked up)
chain: B1 chain with T37A, L38A, T756A, V757A
notes: also called pFR411; source: E. coli BL21(DE3), purified (glutathione beads, cut off with PreScission protease); not shown: GST, N-terminal, cleaved; His6, C-terminal, kept
B3: Lam2(482–1259; ∆644–760)-(His)6 (domain or fragment, S. cerevisiae, UniProt Q06681 482-1259, looked up)
chain: LGPKELNTSYRNSTYIDMARFENSQSNLSSHRARSKTLPANKALENAVGDEGNSKRNSRYSSYSNDMAFDDADERKFRSMSKKFLNRRSFSPSNLGNKVIPGINLRNSFNKNRNSSSDFFSTNQGQQMPRTSTAGSGNIHAIMGLDSGNDDFKLEGIEYASEKYRNGFGNNDDGTISDSSSAFFDDSDDNDDDGDLDDDDPDINSTDMTSSDDIDADVFNESNDLGKNQKSTNYLLGPNKHSPTTADFKPSNNDHLVIEANINAPLGKVVNLLYGEDVSYYERILKAQKNFEISPIPNNFLTKKIRDYAYTKPLSGSIGPSKTKCLITDTLEHYDLEDYVKVLSITKNPDVPSGNIFSVKTVFLFSWDKNNSTKLTVYNSVDWTGKSWIKSMIEKGTFDGVADTTKIMISEIKKILSDEDSNINSKHQASNNESEEEIINLPTIGPPVHDPTEPDFQKGKDDTVIDEKINIPVPLGTVFSLLYGDDTSYIKKIIENQNNFNVCDIPKFVNNAREITYTKKLNNSFGPKQTKCIVTETIEHMDLNSFFMVKQIVRSPDVPYGSSFSVHTRFFYSWGDHNTTNMKVVTNVVWTGKSMLKGTIEKGSIDGQRSSTKQLVDDLKKIISNASSTKKKSRRRGKTVNKRKSSPSTIKNEKNEENFED
notes: also called ∆PH; source: E. coli BL21(DE3), purified (glutathione beads, cut off with TEV protease); not shown: GST, N-terminal, cleaved; His6, C-terminal, kept
B4: Lam4(371–1177)-(His)6 (domain or fragment, S. cerevisiae, UniProt P38800 371-1177, looked up)
chain: SNLERKTVPSKWSVVSSSTTDGVKPRRRAKSMISAMADKQNTSSDVLQDCKKRLSFNSSNGLTNNDPEYEDREPREMSKKFLNRRSFSPGSISMGMKVLPSTALKYSLNKVKNSTDIASTIIPRPSMSNGRPSSGLRRSSSKSFSSTPVNIIEPSEENGRQSSIRIKGVEYASEKKDAEFHAIFKDSGVSPNERLILDHSCALSRDILLQGRMYISDQHIGFYSNILGWVSTVFIPFKTIVQIEKRATAGIFPNGIVIDTLHTKYTFASFTSRDATYDLITEVWNQIILGKRFRSNSNNTNSSSNSISDDENDDYDDDYDDYGDDDDDLYDNSNNISDSTDMTSSVSIGKPEDLPMPLQTDTPYGTGIPPLGPKIHSPTETVYKPAPNEKLVNESTIHASLGRVVNILFGKDVSYIMAILKAQKNSDISPIPVLVDSPTVSEGKKRDYSYVKTTPGAIGPGKTKCMITETIQHFNLEEYVQVLQTTKTPDVPSGNSFYVRTVYLLSWANNNETKLKLYVSVEWTGKSLIKSPIEKGTFDGVTDATKILVEELGNILTRSATKRKRSSKENTVTVSTLPKMEPSSHAPTEPDIQKDKDDSIIRENENIPAPLGTVVQLLFGSNTEYMQKVITRDKNNVNVETIPKFTPSLVEGGSRHYEYTKKLNNSIGPKQTKCLLTESIEHMDINNYVLVTQTTKTPDVPSGSNFAVESKIFLFWGQHDTTNMTVITKINWTSKSFLKGAIEKGSVEGQKVSVDYMLSELRDIISRAKSKKPVKKVMKSHDKHRPFHSKVEQKSSESRKSDDNKDI
notes: also called Lam4/Ltc3 fragment; pFR407; source: E. coli BL21(DE3), purified (glutathione beads, cut off with TEV protease); not shown: GST, N-terminal, cleaved; His6, C-terminal, kept
B5: Lam2(849–1259)-(His)6 (domain or fragment, S. cerevisiae, UniProt Q06681 849-1259, looked up)
chain: SNNDHLVIEANINAPLGKVVNLLYGEDVSYYERILKAQKNFEISPIPNNFLTKKIRDYAYTKPLSGSIGPSKTKCLITDTLEHYDLEDYVKVLSITKNPDVPSGNIFSVKTVFLFSWDKNNSTKLTVYNSVDWTGKSWIKSMIEKGTFDGVADTTKIMISEIKKILSDEDSNINSKHQASNNESEEEIINLPTIGPPVHDPTEPDFQKGKDDTVIDEKINIPVPLGTVFSLLYGDDTSYIKKIIENQNNFNVCDIPKFVNNAREITYTKKLNNSFGPKQTKCIVTETIEHMDLNSFFMVKQIVRSPDVPYGSSFSVHTRFFYSWGDHNTTNMKVVTNVVWTGKSMLKGTIEKGSIDGQRSSTKQLVDDLKKIISNASSTKKKSRRRGKTVNKRKSSPSTIKNEKNEENFED
notes: tandem StARkin domains, PH domain removed; also called pFR409; source: E. coli BL21(DE3), purified (glutathione beads, cut off with TEV protease); not shown: GST, N-terminal, cleaved; His6, C-terminal, kept

The binders below were run against T1, GST-Laf1 (S. cerevisiae, UniProt Q03177 1-834) (assay: pull-down; GST fusion (bait) and His6-tagged Lam fragment incubated 1 h at 4 °C, complexes on glutathione-agarose beads; binding buffer 81 mM NaCl, 4.5 mM KCl, 1.35 mM MgCl2, 0.09% Triton X-100, 0.1 mg/mL BSA, 20 mM HEPES pH 7.5; four washes; immunoblot (anti-His, anti-GST)). Settings: both partners purified.
T1 construct: Laf1/Ymr102c, S. cerevisiae, WD40 repeat protein; plasmid described only as pGEX4T-1 Laf1, no limits stated; Probably the whole open reading frame (surmised); also called Ymr102c; Lam2/Ltc4-Associated Factor 1; source: E. coli BL21(DE3), purified (glutathione beads); not shown: GST, N-terminal, kept
T1 sequence (looked up): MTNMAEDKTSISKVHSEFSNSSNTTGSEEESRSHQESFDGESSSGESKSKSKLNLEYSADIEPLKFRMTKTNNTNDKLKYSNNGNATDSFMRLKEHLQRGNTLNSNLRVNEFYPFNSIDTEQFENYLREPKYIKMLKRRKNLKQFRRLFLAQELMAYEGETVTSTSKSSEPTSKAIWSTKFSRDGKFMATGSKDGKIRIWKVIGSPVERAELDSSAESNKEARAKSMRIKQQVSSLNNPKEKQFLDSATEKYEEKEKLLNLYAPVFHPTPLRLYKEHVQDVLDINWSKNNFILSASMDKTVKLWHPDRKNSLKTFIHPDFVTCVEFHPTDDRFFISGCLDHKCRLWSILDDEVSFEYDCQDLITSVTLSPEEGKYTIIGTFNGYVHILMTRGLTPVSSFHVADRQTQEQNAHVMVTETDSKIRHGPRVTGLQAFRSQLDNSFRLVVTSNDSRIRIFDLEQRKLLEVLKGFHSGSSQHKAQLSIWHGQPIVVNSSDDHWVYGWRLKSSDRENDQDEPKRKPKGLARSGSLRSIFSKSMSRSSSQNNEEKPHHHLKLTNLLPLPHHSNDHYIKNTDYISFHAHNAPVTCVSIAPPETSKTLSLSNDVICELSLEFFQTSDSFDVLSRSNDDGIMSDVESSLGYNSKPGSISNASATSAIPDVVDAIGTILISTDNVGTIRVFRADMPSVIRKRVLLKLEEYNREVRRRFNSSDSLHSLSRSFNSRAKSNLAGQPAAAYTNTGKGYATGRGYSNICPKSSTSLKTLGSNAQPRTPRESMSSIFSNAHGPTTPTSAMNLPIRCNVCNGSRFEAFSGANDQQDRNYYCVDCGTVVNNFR

Binder	binding result
B1	binds
B2	binds
B3	binds
B4	binds
B5	binds

These binders were tested against T2, GST-Dgr2 (S. cerevisiae, UniProt P32330 1-852) in the same assay as above. Settings: both partners purified.
T2 construct: Dgr2/Ykl121w, S. cerevisiae, WD40 repeat protein, paralog of Laf1; plasmid described only as pGEX4T-1 Dgr2, no limits stated; Probably the whole open reading frame (surmised); also called Ykl121w; pFR404; source: E. coli BL21(DE3), purified (glutathione beads); not shown: GST, N-terminal, kept
T2 sequence (looked up): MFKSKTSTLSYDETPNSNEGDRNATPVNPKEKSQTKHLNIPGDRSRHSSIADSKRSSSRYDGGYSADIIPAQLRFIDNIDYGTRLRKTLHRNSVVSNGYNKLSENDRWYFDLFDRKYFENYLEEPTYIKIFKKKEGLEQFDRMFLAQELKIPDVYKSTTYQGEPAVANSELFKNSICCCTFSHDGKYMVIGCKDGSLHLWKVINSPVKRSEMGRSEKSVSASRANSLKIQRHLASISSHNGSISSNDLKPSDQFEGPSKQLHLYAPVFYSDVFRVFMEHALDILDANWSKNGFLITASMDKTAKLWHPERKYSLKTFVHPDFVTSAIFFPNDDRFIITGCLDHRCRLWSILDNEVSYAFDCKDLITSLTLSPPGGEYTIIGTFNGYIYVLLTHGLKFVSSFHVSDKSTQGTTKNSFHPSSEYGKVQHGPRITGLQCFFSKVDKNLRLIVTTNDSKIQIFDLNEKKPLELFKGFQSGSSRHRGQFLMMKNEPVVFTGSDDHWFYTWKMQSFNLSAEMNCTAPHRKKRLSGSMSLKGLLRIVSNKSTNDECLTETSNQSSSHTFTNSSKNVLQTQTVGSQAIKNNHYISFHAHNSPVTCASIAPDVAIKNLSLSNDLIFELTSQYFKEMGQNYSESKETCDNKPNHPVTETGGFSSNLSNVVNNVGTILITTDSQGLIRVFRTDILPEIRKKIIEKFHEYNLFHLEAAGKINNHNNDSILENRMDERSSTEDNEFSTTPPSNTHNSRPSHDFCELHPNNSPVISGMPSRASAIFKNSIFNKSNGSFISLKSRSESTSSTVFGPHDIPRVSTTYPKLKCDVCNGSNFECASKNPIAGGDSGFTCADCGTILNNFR

Binder	binding result
B1	binds
B4	binds
